{"source": "paper PMC6057844", "about": "(Biochemical and biophysical research communications, 2018)", "proteins": {"B1": {"name": "Drp1 in HD mouse striatal cells (natural protein, UniProt Q8K1M6 1-736, looked up)", "chain": "MEALIPVINKLQDVFNTVGADIIQLPQIVVVGTQSSGKSSVLESLVGRDLLPRGTGVVTRRPLILQLVHVSPEDKRKTTGEENGVEAEEWGKFLHTKNKLYTDFDEIRQEIENETERISGNNKGVSPEPIHLKVFSPNVVNLTLVDLPGMTKVPVGDQPKDIELQIRELILRFISNPNSIILAVTAANTDMATSEALKISREVDPDGRRTLAVITKLDLMDAGTDAMDVLMGRVIPVKLGIIGVVNRSQLDINNKKSVTDSIRDEYAFLQKKYPSLANRNGTKYLARTLNRLLMHHIRDCLPELKTRINVLAAQYQSLLNSYGEPVDDKSATLLQLITKFATEYCNTIEGTAKYIETSELCGGARICYIFHETFGRTLESVDPLGGLNTIDILTAIRNATGPRPALFVPEVSFELLVKRQIKRLEEPSLRCVELVHEEMQRIIQHCSNYSTQELLRFPKLHDAIVEVVTCLLRKRLPVTNEMVHNLVAIELAYINTKHPDFADACGLMNNNIEEQRRNRLARELPSAGSRDKSSKVPSALAPASQEPPPAASAEADGKLIQDNRRETKNVPSAGGGIGDGGQEPTTGNWRGMLKTSKAEELLAEEKSKPIPIMPASPQKGHAVNLLDVPVPVARKLSAREQRDCEVIERLIKSYFLIVRKNIQDSVPKAVMHFLVNHVKDTLQSELVGQLYKSSLLDDLLTESEDMAQRRKEAADMLKALQGASQIIAEIRETHLW"}}, "molecular_target": "the molecule itself", "data": [{"protein": "B1", "values": [{"measurement": "stoichiometry N", "result": 4}]}]}
